Measurements reported in patent publication US20220033501A1 (SHANGHAI PHARMAEXPLORER, published 2022).
Changes are numbered by the printed parent chain.

B1: 215A8F2 fully human TIM-3 antibody (human IgG4, kappa) (antibody, V domains shown)
VH: QVQLQQWGAGLLKPSETLSLTCTVYGGSFSGYYWNWIRQPPGKGLEWLGEINHSGSTNYNPSLKRRVTISVDTSKNQFSLKLSSVTAADTAVYYCARVYYYGPFDFWGQGTLVTVSS
VL: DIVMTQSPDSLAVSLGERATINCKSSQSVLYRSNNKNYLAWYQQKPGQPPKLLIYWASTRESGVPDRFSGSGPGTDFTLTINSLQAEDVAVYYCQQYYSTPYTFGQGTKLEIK
B2: 18D2H2 fully human TIM-3 antibody (human IgG4, kappa) (antibody, V domains shown)
VH: EVQLVESGGDLVQPGGSLRLSCAASGFTFSTYWMTWVRQAPGRGLEWVANIKQDGSAKYYVDSVKGRFTLSRDDAKNSLYLQMNSLRAEDTAVYYCARGSNWFDYWGQGTLVTVSS
VL: ETVMTQSPATLSVSPGERATLSCRANQNVYSNLAWYQQKPGQAPRLLIYDASTRATGFPARFSGSGSGTEFTLTISSLQSEDFAVYYCQQYNNWPLTFGGGTKVEIK
B3: 34B6D8 fully human TIM-3 antibody (human IgG4, kappa) (antibody, V domains shown)
VH: B2 VH with D10G, R43K, G44R, D54G, S56G, A57D, L70I, R72T, D74N, Y105P
VL: EIVMTQSPATLSMSPGERATLSCRASQSVYDNLAWYQQKPGQAPRLLIYGASTRATGIPARFSGSGSGTEFTLTISSLQSEDFALYYCQQYTHWPITFGQGTRLEIK
B4: 39E5H1 fully human TIM-3 antibody (human IgG4, kappa) (antibody, V domains shown)
VH: EVQLVESGGGLVQPGGSLRLSCAASGFTFSSYWMSWVRQAPGKGLEWVANIKRGGSERYYVDSVKGRFTISGDNAKNSVYLQMNSLRAEDTAVYYCARGSNWFDPWGQGTLVTVSS
VL: B3 VL with I2T, T10I, M13V, D31S, P40L, G50D, L85V, T92N, H93N
B5: 7A4F10 fully human TIM-3 antibody (human IgG4, kappa) (antibody, V domains shown)
VH: EVQLLESGGGLVQPGGSLRLSCAASGFTFRTHLISWVRQAPGKGLEWVAAITGSGGSTYYADSVKGRFIISRDNSKNTLFLQMNSLRAEDTAVYYCAKDGGSGSYDDFWGQGTLVTVSS
VL: ETVLTQSPVTLSLSPGERATLSCRASQSVGSYLAWYQQKPGQAPRLLIYDASNRATGIPARFSGSGSGTDFTLTISSLEPEDFAVYYCQQRSNWPPTFGQGTKVEIK

Tests used:
[1] = target: T1, TIM-3 protein on human peripheral blood mononuclear lymphocytes (PBMC) (human, UniProt Q8TDQ0 22-301); test: cell-based or functional assay
T1 sequence: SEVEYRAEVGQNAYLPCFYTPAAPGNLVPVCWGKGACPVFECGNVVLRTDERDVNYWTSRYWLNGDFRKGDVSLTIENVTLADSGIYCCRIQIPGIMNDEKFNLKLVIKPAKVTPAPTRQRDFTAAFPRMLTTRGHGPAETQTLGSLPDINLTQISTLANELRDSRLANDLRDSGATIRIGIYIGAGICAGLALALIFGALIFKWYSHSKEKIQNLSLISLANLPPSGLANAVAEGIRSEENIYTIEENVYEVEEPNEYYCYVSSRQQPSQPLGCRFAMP

[2] = target: T2, monkey TIM-3 extracellular domain protein with hFc tag (cTIM-3-hFc) (monkey); test: ELISA, coated monkey TIM-3 ECD protein, 0.0001 nM antibody
T2 construct: not shown: human IgG Fc fragment (hFc) of the pCpC vector
T2 chain: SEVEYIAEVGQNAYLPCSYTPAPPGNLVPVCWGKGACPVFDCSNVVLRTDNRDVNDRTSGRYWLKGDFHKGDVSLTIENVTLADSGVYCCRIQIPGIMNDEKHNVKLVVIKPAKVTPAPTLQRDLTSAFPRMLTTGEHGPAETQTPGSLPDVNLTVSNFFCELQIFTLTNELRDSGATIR

[3] = target: T3, human TIM-3 on CHOK1 stable cell line (CHOK1-hTIM-3) (human, UniProt Q8TDQ0 22-301); test: FACS, CHOK1-hTIM-3 cells, 8 nM antibody
T3 sequence: T1 sequence

[4] = target: T4, human TIM-3 extracellular domain protein with hFc tag (hTIM-3-hFc) (human, UniProt Q8TDQ0 22-200); test: ELISA, coated human TIM-3 ECD protein, 0 nM antibody
T4 construct: not shown: human IgG Fc fragment (hFc) of the pCpC vector
T4 sequence: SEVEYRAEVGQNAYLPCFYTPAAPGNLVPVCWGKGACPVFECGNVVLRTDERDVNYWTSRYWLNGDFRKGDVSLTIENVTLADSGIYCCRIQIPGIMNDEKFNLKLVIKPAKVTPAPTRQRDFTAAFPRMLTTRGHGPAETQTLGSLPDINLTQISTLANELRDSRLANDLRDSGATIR

[5] = target: T5, murine TIM-3 extracellular domain protein with hFc tag (mTIM-3-hFc) (mouse, UniProt Q8VIM0 29-191); test: ELISA, coated mouse TIM-3 ECD protein, 0.6667 nM antibody
T5 construct: also called mouse TIM-3 extracellular domain protein; not shown: human IgG Fc fragment (hFc) of the pCpC vector
T5 chain: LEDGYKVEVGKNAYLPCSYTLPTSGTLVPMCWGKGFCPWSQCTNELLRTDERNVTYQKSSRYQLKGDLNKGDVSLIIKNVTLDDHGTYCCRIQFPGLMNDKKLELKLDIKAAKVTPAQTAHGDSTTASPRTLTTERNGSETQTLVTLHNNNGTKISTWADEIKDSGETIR

[6] = target: T2, monkey TIM-3 extracellular domain …; test: ELISA, coated monkey TIM-3 ECD protein, 0.0667 nM antibody

Binder | IFN-γ production (donor X); antibody 0.1 µg/ml, N = 1 [1] | IFN-γ production (donor X); antibody 0.1 µg/ml, N = 2 [1] | IFN-γ production (donor X); antibody 1 µg/ml, N = 1 [1] | IFN-γ production (donor X); antibody 1 µg/ml, N = 2 [1] | IFN-γ production (donor X); antibody 10 µg/ml, N = 1 [1] | IFN-γ production (donor X); antibody 10 µg/ml, N = 2 [1] | IFN-γ production (donor X); antibody '0' (4th head as printed), N = 1 [1] | IFN-γ production (donor X); antibody '0' (4th head as printed), N = 2 [1] | IFN-γ production (donor X); antibody '0' (5th head as printed), N = 1 [1] | IFN-γ production (donor X); antibody '0' (5th head as printed), N = 2 [1] | OD450 [2] | Mean fluorescence intensity [3] | OD450 [4] | OD450 [5] | OD450 [6]
B1 | 2410 pg/mL | 3170 pg/mL | 2780 pg/mL | 2030 pg/mL | 3000 pg/mL | 2470 pg/mL | 2100 pg/mL | 2300 pg/mL | 1970 pg/mL | 2400 pg/mL | 0.13 | 298 | 0.08 | 0.24 | 1.37
B2 | 2660 pg/mL | 2650 pg/mL | 3000 pg/mL | 3140 pg/mL | 2810 pg/mL | 3070 pg/mL | 2280 pg/mL | 2590 pg/mL | 2340 pg/mL | 2170 pg/mL | 0.14 | 268 | 0.07 | 0.22 | 1.56
B3 | 2770 pg/mL | 2820 pg/mL | 2930 pg/mL | 3550 pg/mL | 2980 pg/mL | 3330 pg/mL | 2600 pg/mL | 2540 pg/mL | 2280 pg/mL | 2390 pg/mL | 0.17 | 219 | 0.09 | 0.27 | 1.71
B4 | 2700 pg/mL | 2880 pg/mL | 3070 pg/mL | 3000 pg/mL | 3150 pg/mL | 3130 pg/mL | 2580 pg/mL | 2460 pg/mL | 2190 pg/mL | 2370 pg/mL | 0.17 | 234 | 0.08 | 0.26 | 1.37
B5 | 2930 pg/mL | 2730 pg/mL | 2920 pg/mL | 2780 pg/mL | 2900 pg/mL | 2360 pg/mL | 2340 pg/mL | 2370 pg/mL | 2290 pg/mL | 2230 pg/mL | 0.13 | 308 | 0.08 | 0.25 | 0.68
